Data as given in the nanobody polyreactivity screen of Harvey et al. (2022).

Experiment: yeast display, Sf9 membrane polyspecificity reagent, FACS + sequencing; frameworks hold sequencing errors
Procedure, shortened: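 Sorting gates, low and high (top ~1%), were placed on anti-HA fluorescence to track expression and on streptavidin fluorescence to track reagent binding. A clone's polyreactivity label is taken from the gate it came out of. The reagent was 10% biotinylated, detergent-solubilized Sf9 membrane, applied for 1 hour at 4 °C to galactose-induced yeast display cells.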

| Sequence | polyreactivity (PSR sort gate) |
| --- | --- |
| QVQLVDSGGGLVQAGGSLRLSCAASGSTSQKNAMGWYRQAPGKERELVAAISSGGSTYYADSVKGRFTISRDNAKNNVYLQLNSLKPEDTAVYNCAAKDLRGLGYWGQGTQVTVSS | high polyreactivity |
| QVQLVESGGGLVQAGGSLRLSCAASGLTFNKYAMGWYRQGPGKERELVAAISYRGGSTYYADSVKGRFTISRDNAKNTVYLQMNSLKPEDTAVYYCAVRYWALDDQYRYGSWGQGTQVTVSS | high polyreactivity |
| QVQLVESVGGLVQAGGSLRLTCAASGFTFDKYAMGWYRQAPGKERELVAAISNSGGRTYYADSVKGRFTISRDNAKNTVYLQMNSLKPEDTAVYYCAAVALTRRYDYWGQGTQVTVSS | high polyreactivity |
| QVQLVESSGGLVQAGGSLSLSCADSGIIFYRYAMGWYIQAQGQERELVAAITWSGVSTSYADSVKGRFTISRDNAKNTVSIQMNSLKPEDTAVYYCNKDPGTLYGDMDSWGQGTQVTVSS | low polyreactivity |
| QVQLVESGGGLVQAGGSLRLSCAASGRIFSSYAMGWYRQEPGKERELVAAISRSGARTYYADSVKGRFTISRDNAKNTVYLQMNSLKPEDTAVYYCAAVTVAGYDYWGQGTQVTVSS | high polyreactivity |
| QVQLVESGGGLVQAGGSLRLSCAASGRIFFWYAMGWYRQAPGKERELVAAISKSGGSTYYADSVKGRFTISRDNAKNTVYLQMNSLKPEDTAVYYCARVSKRTWSGYYYWGQGTQVTVSS | high polyreactivity |
| QVQLVESGGGLVQAGGSLRLSCAASGRIFFNYAMGWYIQAPGKERELVARITGSGGRTYYADSVKGRFTISRDNAKNTVYLQMNSLKPEDTAVYYCNKVPGYKYDSWGQGTQVTVSS | high polyreactivity |
| QVQLVESGGGLVQAGGSLRLSCAASGRTLVKYAMGWYRQAPGKERELVAAITQRGGITYYADSVKGRFTISRDNAKNTVYLQMNSLKPEDTAVYYFAASLYSYRSPYTFYYWGQGTQVTVSS | high polyreactivity |
| QVQLVESGGGLVQAGGSLRLSCAASGISFVYYAMGWYRQAPGKERELVAAITSDGGSTYYADSVKGRFTISRDNAKNTVYLQMNSLKPEDTAVYYCAAEWTSWSWWYGWYEFDYWGQGTQVTVSS | high polyreactivity |
| QVQLVESGGGLVQAGGSLRLSCAASGFTLFTYAMGWYRQAPGKERELVAAIRSGGSTYYADSVKGRFTISRDTAKNTVYLQMNSLKPEDTAVYYCNAVYRYASGKYYYWGQGTQVTVSS | high polyreactivity |
| QVQLVESGGGLVQAGGSLRLSCAASGLIFNKNSMGWYRQAPGKERELVASNTTTGARTYYADSVKGRFTISRDNAKNTVYLQMNSLKPEDTAFYYCASVHWGWRSITGGVGYDSWGQGTQVTVSS | high polyreactivity |
| QVQLVESGGGLVQAGGSLRLSCAASGRTFYSYTMGWYRPAPGKERELVAAISSRGGSTYYADSVKGRFTISRDNAKNTVYLQMNSLKPEDTAVYYCNAARYGRHLSTYDYWGQGTQVTVSS | high polyreactivity |
| QDQLVESGGGLLQAGGILRLRCAASGSILNYYAMGWYIQAPGKERELVAAISSSDGRTYYAYSEKGRFTISRDNAKNTVYLQMNSLKPEDSAVYYCAAEGTYSYSSWYEYWGQGTQVTLSS | high polyreactivity |
| QVQLVESGGGLVQAGGSLRLSCAASGYIFLGNAMGWYRQAPGKERELVAAINSSGGSTYYADSVKGRFTISRDNAKNTVYLQMNSLKPEDTAVYYCATSDRDGIYVVPHMDYWGQGTQVTVSS | low polyreactivity |
| QVQLVESGGGLVQAGGSLRLSCAASGSTLQVNAMGWYRQATGKERELVDTISFSGGSTYYADSVKGRFTISRDNAKNTVYLQMNSLKPEDTAVYYCNADSFVSWYNQFWYQATYDYWGQGTQVTVSS | low polyreactivity |
| QVHLVESGGGLVQAGGSLRLTCAASGSTFDINAMRWYRQAPGKERELVASITFSGGSTYYADSVKGRFTISRDNAKNTVYLQMNSLKPEDTAVYYCAADSSGEYPGGYWGQGTQVTVSS | low polyreactivity |
| QVQLVESGGGLVQAGGSLRLSCAASGRIFGNYAMGWYRQAPGKERELVAAISGGGSTYYADSVKGRFTISRDNAKNTVYLQMNSLKPEDTAVYYCNAKTYYPPFGYWGQGTQVTVSS | low polyreactivity |
| QVQLVESGGGLVQAGGSLRLSCAASGIIFSRYAMGWYRQAPGKERELVAAISTSGGRTFYADSVKGRFTISRDYAKNTVYLQMNSLKPEDTAVYYCNAEIQRGPGRGGYNYWGQGTQVTVSS | high polyreactivity |
| QVQLVDSGGGLVQAGGSLRLSCAASGFTFVYYFMGWYRQAPGKERELVAAITRSCRTYYADSVKGRFTISRDNAKNTVYLQMNSLKPEDTAVYYCARGYGYADHAMGYWGQGTQVTVSS | high polyreactivity |
| QVQLVESGGGLLQAGGSLRLSCAASGSTFYIYSMGCYRQAPGKERELVARISGAGGSTYYSDSVKGRFTISRDNAKNTVYFQMNCLNPEDTAVYYCAAVDIYKYYQYYACPYDSYDYWGQGTQVTVSS | low polyreactivity |
| QVQLVESGGGLVQAGGSLRLSCAASGITFVYYDMGWYRQAPGKERELLAAISSGGSTYYADSVKGRFTISRDNAKNTVYLQMNSLKPEDTAVYYCAAKISSNYHIGGDDYWGQGTQVSVSS | high polyreactivity |
| QVQLGESGGGLFQAGGSLRLSCAASGFTFVYYAMGWYRQAPGKERELVATISGNGGRTYYADSVKGRFTISRDNAKNTVYLQMNSLKPEDTAVYYCAALLYISSVGYDYWGQGTQVTVSS | low polyreactivity |

| Sequence | polyreactivity (PSR sort gate) |
| --- | --- |
| QVQLVESGGGLVQAGGSLRLSCAASGLTFGPYAMGWYRQAPGKERELVAAITSGGRTYYADSVKGRFTISRDNAKNTVYLKMNSLKPEDTAVYYCAADPLSGYDYWGQGTQVTVSS | low polyreactivity |
| QDQLVESGGGLVQAGGSLRLSCAASGFIFYYNAMAWYRHAPGKERELVAAISYVGGSTYYADSVKGRFTISRDNAKNTVYLQLNSLKPEDTAFYYCAARVYWWIASLAGNYWGQGTQVSVSS | low polyreactivity |
| QVQLVESGGGLVQAGGSLRLSCAASGRIFWLYAMGWYRQAPGKERELVAVISWSGGTTYYADSVKGRFTISRDNAKNTVYLQMNSLKPEYTAVYYCAAQVGYYTNYGEFDYLGQGTQVTVSS | low polyreactivity |
| QVQLVESGGGLVQAGGSLRLSCAACGRTFVSYSMGWYRQAPGKERELVAAISRSGGRTYYADSVKGRFTISRDNAKNTVYLQMNSLKPEDTAVYYCATIQYGTLARYDYWGQGTQVTVSS | high polyreactivity |
| QVQLVESGGGLVQAGGSLRLSCAASGIIFRYNTMGWYRQEPGKERELVAAISWSGDSTYYADSVKGRFTISRDNAKNTVYLQMNSLKPEDTAVYYCARSQFSRSPSRMGYWGEGTQVTVSS | high polyreactivity |
| QVQLVESGGGLVQAGGSLRLSCAASGRIFRSNAMGWYRQAPGKERELVAAISQRGGSTYYADSVKGRFTISRDNAKNTVYLQINSLKPEDTAVYYCNARGRYYSGDNWGQGTQVTVSS | high polyreactivity |
| QVQLVESGGGLVQAGGSLRFSCAASGFTFYPNTMGWYRQAPGTERELVAAISSSGGRTYYADSVKGRFTISRDNAKNTVYLQMNSLKPEDNAVYYCNAAKWLTSGGLDYWGQGTQVTVSS | high polyreactivity |
| QVQLVESGGGLVQAGGSLRLSCAASGLNFSEYAMGWYRQAPGKERELVAAIRSDGGSTYYADSVKGRFTISRDNAKNTVYLQMNSLKPEVTAVYYCNAPYRRSAKFRRYVYDYWGQGTQVTVSS | high polyreactivity |
| QVQLVESGGGLFQAGGSLRLSCAASGSTIWSYAMGWYRQAPGKERELVASITWSGGSTYADSVKGRFTISRDNAKNTVYFQMNRLKPEDTAVYYCARESTLTYYSDDFDYWGQGTQVTVSS | low polyreactivity |
| QVQLVDSGGGLVQAGGSLSLSCAASGSTFTDYDMGWYRQAPGKERELVAAITSGGSTNYADSVKGRFTISRDNAKKTVYLQMNSLNPEATAVYYCAAADADRKYDYWGQGTQVTVSS | low polyreactivity |
| QVQLVESGGGLVQAGCSLRLSSAASGIIFSHNAMGWYRQAPGKERELVDDIDWSGGSTYYADSVKGRFTISRDNAKNTVYLQMNSLKPEDTAVYYCAAEYRDYVPVNDTGDYWGQGTQVTVSS | low polyreactivity |
| QVQLVESGGGLVQAGGSLRLSCAASGGIFGHNAMGWYRQAPGKERELVAAISYTGGSTYYADSVKGRFTISRDNAKNTVNLQMNSLKPEDTAVYYCNAVQRRFRYPFDYWGQGTQVTVSS | low polyreactivity |
| QVQLVESGGGLVQAGGSLRLSCAASGFTFYYYTMGWYRQAPGKERELVAGISGTGGSTYYADSVKGRFTISRDNAKNTVYLQMNSLKPEDTAVYYCAAGPWYWGQGTQVTVSS | low polyreactivity |
| QVQLVESGGGVVQAGGSLRLSCAASGSTFYAYAMGWYRQAPGKERELVAGISKRVGRTYYADSVKGRFTISRDNAKNTVYLQRNSLKPEDTAVYYCAAQFYLFYEYEYWGQGTQVTVSS | high polyreactivity |
| QVQLVESGGGLVQAGGSLRLSCAASGLIFYLYAMGWYRQQPGKERELVARMSRGGSTNYADSVKGRFTISRDNAKNTVYLQLNSLKPEDTAVDYCAADWFVSLGEMYYWGQGTQGTVSS | low polyreactivity |
| QVQLVESGGGLVQAGGSLRLTCAASGRTFKSYTMGWYRQAPGKEREFVAAISSRGGNTYYADSVKGRFTISRDNAKNTVYLQMNSLKPEDTAVYYCAAESSYWSFPTYDYWGQGTQVTVSS | high polyreactivity |
| QVHLVESGGGLVQAGGSLRLSCAASGRTFDINAMGWYRQAPGKERELVAAISSRGGTTFYADSVKGRFTISRDHAKNTVYLQMNSLKPEDTAVYYCAAEYSSYYTRGGSYNYWGQGTQVTVSS | low polyreactivity |
| QVQHVESGGGLVQAGGSLRLSCAASASTLYRNAMGWYRQAPGKEREFVAAISWSGGSTYYADSVMGRFTISRDNAKNTVYLQMNSLKPEDTAVYYCNADTDRYWPYEYDYWGHGTQVTVSS | low polyreactivity |
| QVQLVESGGGLVQAGGSLRLSCAASGRIFRYYAMGWYRQAPGKERELVARITWSGGRTYYADSVKGRFTISRDNAKNTVYLQMNSLKPEDTAVYYCNARATSGGDYWGQGTQVTVSS | high polyreactivity |
| QVQLVESGGGLVQAGGSLRLSCAASGSTFQFYAMGWYRQAPGKERELVAAISVSGDRTYYADSVKARFTISRDNAKNTVYLQMNSLKPEDSAVYYCAARYGPFKRRFDYWGLGTQVTVSS | high polyreactivity |
| QVQLVESGGGLVQAGGSLRLSCAASGFTFKSYAMGWYRQAPGKERELVAAISRGTSTKYADSVKGRFTISRDNAKNTVYLQMNSLKPEDTAVYYCAALFPTSDLRLRYYRYDYWGQGTQVTVSS | low polyreactivity |
